{"source": "the DeepSol protein solubility set", "data": [{"test": "soluble on expression in E. coli; label from the status in PepcDB or PDB records", "values": [{"sequence": "MKQYFYERECQNPELREQSLLERLPSFITYAKQECQHYGQILQHIDADKITSRELLAQLPITRKSDLMKLQAKNSPLGGLNANKANIGRIFQSPGPIYDPENTSDDWWRLGQAFYAAGFRAGDIVQNCLSYHLTPGGFILDSGARACGCVVIPAGPGQTEQQLDIIEHLKPQGYSGTPSFLKILLDKAKAENRDISSVTKALVTGEALPKGLRAEFDAAGINTLQAYASADVGLIGFESKSDDGFIIAEDLLVEIVRPGTLEPVADGEIGEVVVTSFNVDYPLIRFATGDLSAVKSSESACGRTNMCIKGWLGRADQTTKIKGMFVHAEQIEQVRQAYPHIAKMRLSVTQVNYNDQMNLQCELDSSGYSEADIAGAIENISSSLKKTTKLNGAVELVAVGTLADDGKVIDDLRPIG", "soluble on expression in E. coli": "not soluble"}, {"sequence": "GSGMEQFPKETVVESSGPKVLETAEEIQERRQEVLTRYQSFKERVAERGQKLEDSYHLQVFKRDADDLGKWIMEKVNILTDKSYEDPTNIQGKYQKHQSLEAEVQTKSRLMSELEKTREERFTMGHSAHEETKAHIEELRHLWDLLLELTLEKGDQLLRAL", "soluble on expression in E. coli": "soluble"}, {"sequence": "MAHHHHHHVGTGSNDDDDKAGLVEGQNYTVLANPIPQQQAGKVEVLEFFGYFCPHCAHLEPVLSKHAKSFKDDMYLRTEHVVWQKEMLTLARLAAAVDMAAADSKDVANSHIFDAMVNQKIKLQNPEVLKKWLGEQTAFDGKKVLAAYESPESQARADKMQELTETFQIDGTPTVIVGGKYKVEFADWESGMNTIDLLADKVREEQKAAQ", "soluble on expression in E. coli": "soluble"}, {"sequence": "MKNDTAALAADIVDFWKKAGPDKWFDKDAAFDNHFHDRFRDAHFAAARRELDGWLEGAESSLALMLLLDQFPRNCFRGTAHMYATDPLARFFADEAIRRGHDQAVSEDLRVFFYLPFSHAEDIAAQQRACDLNQPLGGLYLHHAEEHRDIVERFGRFPHRNGILLRETTPEERQYLEEGGFSG", "soluble on expression in E. coli": "soluble"}, {"sequence": "MGGSHHHHHHGMASALDPAGGPRGVLPRPCRVLVLLNPRGGKGKALQLFRSHVQPLLAEAEISFTLMLTERRNHARELVRSEELGRWDALVVMSGDGLMHEVVNGLMERPDWETAIQKPLCSLPAGSGNALAASLNHYAGYEQVTNEDLLTNCTLLLCRRLLSPMNLLSLHTASGLRLFSVLSLAWGFIADVDLESEKYRRLGEMRFTLGTFLLLAALRTYRGRLAYLPVGRVGSKTPASPVVVQQGPVDAHLVPLEEPVPSHWTVVPDEDFVLVLALLHSHLGSEMFAAPMGRCAAGVMHLFYVRAGVSRAMLLRLFLAMEKGRHMEYECPYLVYVPVVAFRLEPKDGKGVFAVDGELMVSEAVQGQVHPNYFWMVSGCVEPPPSWKPQQMPPPEEPL", "soluble on expression in E. coli": "not soluble"}, {"sequence": "MSLDAAGLARSTFFYHQQRLNVPDKHIDLKEAIVEVFTRTNRRYGYRRIHAHLRQDGWNVNHKLVYKLMDELGLKSKVRAKKRYNAYQGTVSHIAENVLDRCFTPDKPNTVWTSDVTEFRIAGTKVYLSPIMDLYDRSIVSYSVSTSPNTAFTSRSLKDAITSQSPGSGLLVHTDQGIQYQHSSWRDLITSIDGIQSMSRKGNCYDNAVMENFFGHLKSEMHHGESFDGLEHFRQALDGYIHWYNHERIQKRLKGLAPMQYRNQTLEPLTAEGHHHHHH", "soluble on expression in E. coli": "not soluble"}, {"sequence": "MGSDKIHHHHHHMKIYIMKQQMRQAKRVNYLDEHLNCLFYNGNPEIGFRHLTLQKGKTWCELSAKNNYFFFLLEGALIVDFNECVGYEVGKGEMIYLPRSADFKIFAKESADLIILSYGIPVQLCDKLSLSQLGAFITDFKYEFKSLDIRVPLDTFLKLLVKYLDSGMSCQHMHELKQKELFLILRAYYTKEEKVNFFYHSIAASLTFKDKVMGVYLEARTVQELADKCGYGLKTFQRLFYSCFSEVPSKWLMKQKAQHVKARLLDRDIPIKVILDEFGFSTYANFCNYCKRYVGDTPRNIRESVTLGFRK", "soluble on expression in E. coli": "not soluble"}, {"sequence": "MPENSQPTTTEKGSEYLEQLANEAEELRKKLDQERHKLNDIPIQQAAERLDVMGALGVKQRRILKGHVGKVLCMDWSLDKRHIVSSSQDGKVIVWDGFTTNKEHALTMPTTWVMACAFSPSSQMIACGGLDNKCSVVPLSFEDDIIQKKRQVATHTSYMSCCTFLRSDNLILTGSGDSTCAIWDVESGQLIQNFHGHTGDVFAIDVPKCDTGNTFISAGADKHSLVWDIRSGQCVQSFEGHEADINTVRFHPNGDAFATGSDDATCRLFDLRADRQVCVYEKESILFPVNGVDFSLSGRILFAGYGDYRVGVWDSLKCARHSVLYGHENRISCLRTSPDGTAVCSASWDCTIRIWA", "soluble on expression in E. coli": "not soluble"}, {"sequence": "MSDGQLVQRRRKAEEPVTEKVDEASGDSAQSSDQEDNDKGTRLTLMEQILLLGLKDREGYTSFWNDCISSGLRGCVLIELVLRGRIQLEGGGMRRKNLLNRKVTVKSSEPTGDVILDEALRHMKETNPPETVTSWIEYLSGETWNPLKLRYQLRNVRERLAKNLVEKGVLTTDKQNFLLFEITTHPLSDGNQKTKLIKEVQEAVLGKWTNDVHRMDKKMLSLIVLAHASDVLENAFAPLSDQDYEVKQMLEILFFSGKLAHFEPKNVAMKRVRSLLDLDYDQQAEKKGNDVMWAVFEAFSK", "soluble on expression in E. coli": "soluble"}, {"sequence": "MGSDKIHHHHHHMKTSLGPIQYCWPKEKVVEFYEAVAQSSVPLVYLGETVCSRRRELKFSDYLALAQMLKAAGKEVVLSTLTLIEAQSEFLELKKQVENGEFTIEANDVGAIYLAKEHGIPFVCGPSINSYNAATLKKFASWGMQRFVMPLELSKAWLTQVLDDLAPRQVEVEVFGHGFMPLAHSARCFTARHKGLTKDKCQTICIENPEGLLVQTQEDQPLLRLNGIQTQSANYMDLCDQQTQMQALGVDYFRISPSSLASIALADKLPAKSASHDRQCNGYWHQLPGLALS", "soluble on expression in E. coli": "not soluble"}, {"sequence": "MQNTIIQKAVNKDLNSILEITKDALNAMKTMNFHQWDENYPNEIVFQEDIQAQELYVFKENDEILGFICINEKFKPEFYKQVIFNKNYDDKAFYLHRLAVKQNAKGKGVAQKLLNFCENFALENHKASLRADTHSKNFPMNSLFKKLDFNFCGNFDIPNYQDPFLAYEKILNQKAF", "soluble on expression in E. coli": "not soluble"}, {"sequence": "MSLVEMKFLTDRMLGRLTRWLRISGYDTVSVSELEFDEEEDEFMLRNLRDRILLTKDRELYRKSVKEGRKAILIRSDSLEGQMRELMERGVKFQIVMDRCSLCNTPLRKPSREEAMEVIEREKLSEDMLEFELWYCEKCRKLYWMGGHWKNMTRFLRKFESEGHHHHHH", "soluble on expression in E. coli": "soluble"}, {"sequence": "MVITLPKLKYALNALSPHISEETLNFHYNKHHAGYVNKLNTLIKDTPFAEKSLLDIVKESSGAIFNNAAQIWNHTFYWDSMGPDCGGEPHGEIKEKIQEDFGSFNNFKEQFSNILCGHFGSGWGWLALNNNNKLVILQTHDAGNPIKDNTGIPILTCDIWEHAYYIDYRNDRASYVKAWWNLVNWNFANENLKKAMQKLEHHHHHH", "soluble on expression in E. coli": "soluble"}, {"sequence": "MSVETILVVGGGISGITTAVEAAEVGYNTVLVEKKPYLGGRAAQLNKYFPKLCPPYCGLEMNFRRIKPNPKITVYTMTEVESVSGQEGNYSVRLKVSPRFVNEKCTACNACAEACPVERPNEFNFGMDKTKAAYLPHVLSYPMRYVIDRDACKDNSCDKCVKACKYNAIDLNMKPQTIEMKVGSIVYATGWNPYDATRMDNLGFGRVKNVITNMMMERLAAPNGPTGGKLLRPSDNKEVKKVVFVQCAGSRDENHLNYCSSICCMASLKQATYVRERIPDSQVVVAYIDLRAPGKYEEFLNKVEADANVKLVKGKVAKIEEDKATGGVILEFEDVEGGGKRHEHADMAVLATGMEPCVKANSMLSFEENGFINGGSAAGIYSTGVAKRPSDVTTAIQDATGMALKSIQSLVRSLEHHHHHH", "soluble on expression in E. coli": "not soluble"}, {"sequence": "GTIVITGTITDTTCVIEDPSGPNHTKVVQLPKISKNALKANGDQAGRTPFIIKLKDCPSSLGNGVKAYFEPGPTTDYSTGDLRAYKMVYATNPQTQLSNITAATEAQGVQVRISNLNDSKITMGANEATQQAAGFDPEVQTGGTSRTVTMRYLASYVKKNGDVEASAITTYVGFSVVYP", "soluble on expression in E. coli": "not soluble"}, {"sequence": "MGKEITENIIDVEFKCNHFKMNGYIGNNNIYRSNKNLQHIYINKRFVKSKIIIDAITESYKSIIPIGKHAVCFLNIEVDPSCIDVNIHPNKLEIKFEKEQEVYIELRDFLKVKLIHSNLIGLEHHHHHH", "soluble on expression in E. coli": "not soluble"}, {"sequence": "MYTQTLYELSQEAERLLQLSRQQLQLLEKMPLSVPGDDAPQLALPWSQPNIAERHAMLNNELRKISRLEMVLAIVGTMKAGKSTTINAIVGTEVLPNRNRPMTALPTLIRHTPGQKEPVLHFSHVAPIDCLIQKLQQRLRDCDIKHLTDVLEIDKDMRALMQRIENGVAFEKYYLGAQPIFHCLKSLNDLVRLAKALDVDFPFSAYAAIEHIPVIEVEFVHLAGLESYPGQLTLLDTPGPNEAGQPHLQKMLNQQLARASAVLAVLDYTQLKSISDEEVREAILAVGQSVPLYVLVNKFDQQDRNSDDADQVRALISGTLMKGCITPQQIFPVSSMWGYLANRARHELANNGKLPPPEQQRWVEDFAHAALGRRWRHADLADLEHIRHAADQLWEDSLFAQPIQMLLHAAYANASLYALRSAAHKLLNYAQQAREYLDFRAHGLNVACEQLRQNIHQIEESLQLLQLNQAQVSGEIKHEIELALTSANHFLRQQQDALKVQLAALFQDDSEPLSEIRTRCETLLQTAQNTISRDFTLRFAELESTLCRVLTDVIRPIEQQVKMELSESGFRPGFHFPVFHGVVPHFNTRQLFSEVISRQEATDEQSTRLGVVRETFSRWLNQPDWGRGNEKSPTETVDYSVLQRALSAEVDLYCQQMAKVLAEQVDESVTAGMNTFFAEFASCLTELQTRLRESLALRQQNESVVRLMQQQLQQTVMTHGWIYTDAQLLRDDIQTLFTAERY", "soluble on expression in E. coli": "not soluble"}, {"sequence": "MALDITDESEIYNLDSLVSYSQGGCKAEHDWRIGTEHEKFPFYRGDFRPVPYEGSRGIRALLEGMQKALGWEPILDEGNIIGLVGSVGQGAISLEPGGQFELSGALLKTIGDTYCEVIEHLALLKKISEPLGIGFLGIGASPKWTLTETPRMPKSRYRIMANYMPKVGHSGLDMMYRTSTVQVNLDFSSETDMRRKMQVSMKLQSIATALFASSPFTEGRPNGFLSWRSEIWCDTDNQRTGVLPFIFSERFGFADYVEWALDVPMYFVVRDGRYYDCTHITFRQFMNGALRGQVANATPNMGDWINHLSTLFPEVRLKRFLEMRGADCGSLKRICALSAFWVGILYDSEALNEAEALTKDWCFEEVLDMRKRVPKEGLKTPFRQTIILEIARQAVAISHKGLKNRRQYASNGLDETSFLAPLEEVIAMGQTDADKFLSLYHSIWDKSVEPVFLECVY", "soluble on expression in E. coli": "not soluble"}, {"sequence": "MRILHTSDWHLGKNLEGYSRMDEQEEFLEDFIKIVEENNIDMVVIAGDIYDTYNPPARAEKMFYSTLKKISQNGERVTLVIAGNHDNPERLVAAGPLARDHGIIMVGTPKSVVPTGEYGKHKVLSSKEGFIEIEVNGERASIITLPYPSEKRLNEVLYEEMDSEEEKVKSYGDRIKQLFDRLSENFRDDTINMVVSHLFAMGSEEGGSERNVQLGGSFIVNGDCFPKNAQYVALGHVHKPQLVPGTHKIARYSGSPIQYNKKEINFKKKCFLVNIEAGKEPIVDEIEFKVYKPIEVWKCTGVEEAIKKCEENKDRDCWVYLEIVTDKYIGEEEMKAMKSLKKDILEILPKVSVDNEIIDMASFKERPFEEIFKEFYKKERKVEPDNEVVDLLLSIINGGEAEDETHKS", "soluble on expression in E. coli": "not soluble"}, {"sequence": "MGSHHHHHHMGQSVEVEILLNDAESRKRAEHKTEDGKKEKYFLFYDGETVSGKVSLSLKNPNKRLEHQGIKIEFIGQIELYYDRGNHHEFVSLVKDLARPGEITQSQAFDFEFTHVEKPYESYTGQNVKLRYFLRATISRRLNDVVKEMDIVVHTLSTYPELNSSIKMEVGIEDCLHIEFEYNKSKYHLKDVIVGKIYFLSVEIKIKHMEIDIIKRETTGTGPNVYHENDTIAKYEIMDGAPVRGSSIPIRLFLAGYELTPTMRDINKKFSVRYYLNLVLIDEEERRYFKQQEVVLWRKGDIVRKSMSHQAAIASQRFEGTTSLGEVRTPGQLSDNNSRQ", "soluble on expression in E. coli": "soluble"}]}]}
